Results published in patent publication US6465423 (CENTRAL SYDNEY AREA HEALTH SERVICE, dated 2002).

B1: acid-labile sub-unit (ALS) of insulin like growth factor binding protein complex (other, human, UniProt P35858 28-605, looked up)
chain: ADPGTPGEAEGPACPAACVCSYDDDADELSVFCSSRNLTRLPDGVPGGTQALWLDGNNLSSVPPAAFQNLSSLGFLNLQGGQLGSLEPQALLGLENLCHLHLERNQLRSLALGTFAHTPALASLGLSNNRLSRLEDGLFEGLGSLWDLNLGWNSLAVLPDAAFRGLGSLRELVLAGNRLAYLQPALFSGLAELRELDLSRNALRAIKANVFVQLPRLQKLYLDRNLIAAVAPGAFLGLKALRWLDLSHNRVAGLLEDTFPGLLGLRVLRLSHNAIASLRPRTFKDLHFLEELQLGHNRIRQLAERSFEGLGQLEVLTLDHNQLQEVKAGAFLGLTNVAVMNLSGNCLRNLPEQVFRGLGKLHSLHLEGSCLGRIRPHTFTGLSGLRRLFLKDNGLVGIEEQSLWGLAELLELDLTSNQLTHLPHRLFQGLGKLEYLLLSRNRLAELPADALGPLQRAFWLDVSHNRLEALPNSLLAPLGRLRYLSLRNNSLRTFTPQPPGLERLWLEGNPWDCGCPLKALRDFALQNPSAVPRFVQAICEGDDCQPPAYTYNNITCASPPEVVGLDLRDLSEAHFAPC
modifications: glycoprotein (N-linked carbohydrate); 125I-iodinated (chloramine-T) where used as tracer
notes: mature; 84/86 kDa doublet on SDS-PAGE; In some experiments partially pure ALS or serum fractions (peak B) were used; also called ALS tracer
B2: 28K IGF-binding protein BP-28 (other, human, UniProt P08833 26-259, looked up)
chain: APWQCAPCSAEKLALCPPVSASCSEVTRSAGCGCCPMCALPLGAACGVATARCARGLSCRALPGEQQPLHALTRGQGACVQESDASAPHAAEAGSPESPESTEITEEELLDNFHLMAPSEEDHSILWDAISTYDGSKALHVTNIKKWKEPCRIELYRVVESLAKAQETSGEEISKFYLPNCNKNGFYHSRQCETSMDGEAGLCWCVYPWNGKRIPGSPEIRGDPNCQIYFNVQN
notes: mature; also called purified amniotic fluid BP-28

Experiments:
[1] = biological target: T1, Cross-linked BP-53-IGF-I tracer (covalent complex of BP-53 with [125I]IGF-I) (human, UniProt P17936 28-291; P05019 49-118, 125I-iodinated; cross-linked to BP-53 with disuccinimidyl suberate; glycoprotein; cross-linked to IGF-I with disuccinimidyl suberate); experiment: routine ALS assay, Superose-12, no serum added
T1 construct: mature; About 60K; Used as tracer in the routine ALS assay; also called covalent BP-53-IGF-I complex; cross-linked tracer
Experimental: The routine assay for ALS activity was developed, based on the conversion of a covalent BP-53-IGF-I complex of approximately 60K to 150K form in the presence of ALS.
(§1) Samples to be tested for ALS activity were diluted to 200 μL in buffer containing 50 mmol/L sodium phosphate, 0.15 mol/L NaCl, and 0.2 g/L sodium azide, pH 6.5, with 10 g/L bovine albumin. Cross-linked BP-53-IGF-I tracer (~80,000 cpm; 4 ng) was added in 50 μL of the same buffer. After 25–30 min. of incubation at 22° C., 200 μL of the mixture was applied using a V-7 injector valve (Pharmacia) to a Superose-12 gel permeation column eluting at 1.0 mL/min (~2 megapascal pressure) in assay buffer without albumin. The column was calibrated with rabbit immunoglobulin G (Pentex; ~150K), which eluted mainly in fractions 22~24, peaking in fraction 23; BP-53-IGF-I tracer (~60K), which eluted mainly in fractions 25–27, peaking in fraction 26; IGF-I tracer bound to BP-28 (~35K, peaking in fraction 28); and IGF-I tracer (7.5K, peaking in fraction 33). Plotted as log (molecular mass) vs. elution volume, these four markers yielded a linear calibration curve (not shown). As a quantitative index of ALS activity (i.e. the degree of conversion of BP-53 to the 150K complex), the total radioactivity in fractions 22–24 was divided by that in fractions 25–27 to give a 150K/60K ratio. The values of this ratio typically varied between 0.1 and 2.0. […]

[2] = biological target: B1; experiment: competition with cross-linked BP-53-IGF-I tracer in the routine ALS assay
Experimental: as §1, with “2.0. The coefficient of variation of the 150K/60K ratio, based on analysis of variance of eight duplicate measurements covering a wide range of values, was 3.2%.” for “2.0.”

T1 sequence (P17936 28-291, chain 1 of 2): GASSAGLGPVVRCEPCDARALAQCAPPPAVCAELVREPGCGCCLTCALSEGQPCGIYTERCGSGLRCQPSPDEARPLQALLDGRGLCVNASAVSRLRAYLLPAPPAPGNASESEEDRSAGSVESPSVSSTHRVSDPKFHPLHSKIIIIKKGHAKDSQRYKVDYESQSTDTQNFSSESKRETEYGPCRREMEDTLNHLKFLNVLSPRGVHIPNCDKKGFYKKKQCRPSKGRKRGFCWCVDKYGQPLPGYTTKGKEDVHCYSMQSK
T1 sequence (P05019 49-118, chain 2 of 2): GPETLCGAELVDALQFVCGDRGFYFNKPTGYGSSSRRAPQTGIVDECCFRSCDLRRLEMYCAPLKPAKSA

Row | Binder | 150K/60K ratio [1] | binding result [2]
1 | B1 | ~1 | 
2 | B2 |  | no binding (tested: 0.8 µg/mL)
